# Patent US20250134019A1, “TRIKETONE DIOXYGENASE VARIANTS FOR HERBICIDE TOLERANCE” (Monsanto Technology LLC, priority 2022, published 2025)
# Residue numbers refer to the chain shown, from its start. In names and notes the source's numbering stands.
# B1: D08: Os.TDO variant D08, SEQ ID NO:18, 20 amino acid changes relative to Os.TDO (protein)
# chain: MADESWRAPALVQELAAKGVEEPPSRYLLREQDRPDVKLVAAELPEPIPVVDLGRLDGAEEATKLRVALQNWGFFLLTNHGIEASLMDDVMNLSREFFNQPIERKQKFSNLIDGKHFQIEGYGTDRVVTQDQVLDWSDRLHLRVEPKEEQDLAFWPDHPESFRDVLHKYASGCKRIRDDIIQAMAKLLELDEDYFLDRFNEAPTFARFNYYPPCPRPDLVFGIRPHSDGGLLTILLVDKDVGGLQVQRDGKWSNVPATPHTLLINLGDTMEVMSNGIFKSPVHRVVTNAEKERISLAMLYSVNDEKDIEPAAGLLDENRPARYRKVSVEEFRAGIFGKFSRGERYIDSLRI
# modifications: TDO variant sequence
# B2: Zm.TDO: TDO homolog from Zea mays, SEQ ID NO:4 (protein)
# chain: MADESWRVPTPVQELAATLEEPPSRYVLQEKDRRGSPLVADDMPEPLPVINLSRLSEDATEAAKLESALQSWGLVLVTNHGIETSLMDGVMDASREFFRQPLEEKQKYSNLIDGKRFQVEGYGNDRVATERQILNWNDRLHLKVAPEDERDYTHWPKHPESFRDVLHEYALETKRVRDGIFRATAKILELDEDHFVRLISDRAAAFARFNYYPPCPRPDLVNGVQPHSDAGVLTILLVDKDVRGLQVQRDGVWYNVPPMPYTLLINLGDIMEIMSNGILKSPVHRVVTNAEKERISLAVFYGVGAENALEPAAGLLDEKRPARYRKISMTDFIAGIHGQFSRGTRFIESLKI
# modifications: Zea mays
# B3: Sb.TDO: TDO homolog from Sorghum bicolor, SEQ ID NO:6 (protein)
# chain: MAGESWKVPTPVKDLAALVEEPPSQFVQREEDRPGSLMLAADMPDPLPIVDLDKMSTADEATKLRSALQTWGLFLATNHGIDVSLMEDLMKASREFFNQPLQERQKYSNLREGTRFQLEGYGSDPVIAQDHILDWSDRLQLKVEPEDERNLAQWPKHPESFRDLLHEYATKTKTVMVKILRAMAKTLELDEEDFIDQIGGRPQAYARFNYYPPCPRPELVLGIKAHSDGPLLTVLLVDREVGGLQIQRENKWFNVPSIPHALVINLGDSLEIMSNGIFKSPVHRVVTNAEKERISLAMLYAVQRDNVLEPAPGLLDEKRPAKYRRITEAHFLEGVKEHFSKGMRMIETLKI
# modifications: Sorghum bicolor
# B4: SwM: Sb.TDO variant SwM, SEQ ID NO:48, substitutions P230T-A301S-L332R-V335I (protein)
# chain: B3 chain with P230T, A301S, L332R, E333A, V335I
# modifications: TDO variant sequence
# Experiments:
# [1] = test system: transgenic cotton plants; experiment: Mesotrione treatment of cotton plants expressing TDO variants, crop injury; type: in vivo; details: for Crop Injury (%), 210 g/ha (2X) Mesotrione / Crop Injury (%), 840 g/ha (8X) Mesotrione: R2 cotton sprayed at V3
# Description: Cotton is a crop of interest that is often exposed to high temperature growing conditions and thus, selected TDO variants were tested in cotton. Three TDO variants, D08, TDO_6, and TDO_8 were transformed into cotton (along with the Os.TDO control) using similar expression elements in single-cassette vectors or as part of multi-cassette vectors. R2 transgenic cotton plants were then screened for tolerance to mesotrione. Sixteen plants from two events each per construct were sprayed with two rates (2X and 8X) of mesotrione at V3 stage under normal (80° F.) and hot (100° F.) growing conditions. In addition, the effect of heat treatment on TDO accumulation in cotton plants were measured by ELISA. Cotton plants were planted and grown under normal greenhouse conditions (80° F. day/70° F. night) until V3 growth stage. Half of the plants were then moved to a higher temperature growth chamber (100° F. day/82° F. night) for the heat treatment, whereas the remaining half of the plants stayed in the same greenhouse (80° F. day/70° F. night). At day 3 after the plants were placed under different temperature conditions, leaf samples were collected for TDO protein measurement. The plants in 100° F. growth chamber and in 80° F. greenhouse were both sprayed with 2X mesotrione (210 g a.i./ha). Leaf samples were collected again 7 days after mesotrione treatment (DAT: Days After Treatment) for protein assay. Table 5 compares protein levels of the TDO variants in transgenic cotton plants grown under the two tested conditions. The protein levels for the TDO variants were measured at three time points for plants: 1) just before entering the high temperature treatment, 2) three days following placement into control (normal growth temperature) or high temperature (100° F.), and 3) 7 days after a 2X mesotrione spray.
# [2] = test system: transgenic soybean plants; experiment: TDO protein level (ELISA) and mesotrione injury of transgenic soybean at normal vs elevated temperature; type: in vivo; details: elevated temperature (99° F.)
# Description: Os.TDO-transgenic soybean plants and wild-type control plants were grown at 80° F. until V2 growth stage, then half of the plants were transferred to 99° F. After 3 days, leaf samples were harvested to determine TDO protein levels, and plants were then treated with 2X and 8X rates of mesotrione. Crop injury ratings were taken 11 days after mesotrione treatment. […] The black bars represent TDO protein levels in parts per million per dry weight; the gray bars represent plant injury rate (%) to 2X and 8X mesotrione treatments.
# Soybeans were planted and grown under typical greenhouse conditions (85° F. day, 75° F. night) until approximately V3 growth stage. At that time, half of the plants were moved to a higher temperature growth chamber (99° F. day, 82° F. night; 60% relative humidity) for three days prior to leaf sample collection and a spray application of 4X rate mesotrione. Mesotrione was applied to both greenhouse and growth chamber plants. Visual injury ratings were taken at 7 days after treatment. […] The gray bars represent mesotrione injury ratings at 85° F. and the black bars represent mesotrione injury ratings at 99° F. for these transgenic plants.
# The TDO variants were grown at 85° F. (gray) vs 99° F. (black). […]
# The enzyme activity was measured at room temperature for the hydroxylation of mesotrione, and was defined as Kcat/Km, M-1 sec-1 (specificity constant). […]
# [3] = test system: transgenic soybean plants; experiment: Field testing of variant D08 for mesotrione tolerance; type: in vivo; details: field setting, no control of temperature
# Description: Since this testing was conducted in the field, there was no control on the temperature ranges the plants were exposed to.
# [4] = test system: transgenic soybean plants; experiment: Mesotrione injury of R0 transgenic soybean plants expressing TDO homologs; type: in vivo; details: promoter Constitutive 1, 3' UTR A; 210 g a.i./ha mesotrione at V3-V4, rated 7-14 days after treatment; mean of all tested events
# Description: Plant expression vectors comprising the selected TDO homologs under the control of one of two constitutive promoters were transformed into soybean via an Agrobacterium tumefaciens-mediated method. Following Agrobacterium transformation, R0 transgenic soybean plants containing a single copy of the transgene were identified through molecular characterization and segregation analysis. Transgenic and wild-type (control) plants were grown in 6-inch pots filled with BM7 soilless mix in a growth chamber under the conditions of 28° C./23° C. (light/dark) and a 16 hr light/8 hr dark photoperiod. Plants were fertilized with 15-5-15 liquid fertilizer at the V3-V4 growth stage and treated with 210 g a.i./ha mesotrione (1X=105 g a.i./ha; Callisto®, Syngenta in 1% crop oil). Plants were visually rated 7-14 days after treatment on a scale of 0% to 100%, with 0%=no injury and 100%=plant death, relative to the wild-type controls. The results summarized in Table 2 represent the mean of all tested events (10-15) for each construct.
# [5] = Specific activity of purified TDO proteins, second hydroxylation of mesotrione; type: biochemical; details: FIG. 8
# From the text: Activity was expressed as nmol/min/mg protein and was the mean of three separate assays on the same enzyme sample (technical reps).
# To test the hypothesis, the four amino acids of sorghum TDO corresponding to amino acid positions 230, 301, 332, and 335 in rice TDO were replaced with those of rice TDO. The corn, rice, sorghum, and the modified sorghum TDO genes were cloned into a pET28 vector for E. coli expression with His6 tag in the N-terminus. Subsequently, the proteins were expressed and purified by affinity chromatography. BL21-CodonPlus (DE3)-RIPL E. coli cells (Stratagene) were used for expression. Cells transformed with expression vector were grown in autoinduction media (AIM) supplemented with 100 μg mL-1 kanamycin and 34 μg mL-1 chloramphenicol.
# TDO proteins used in this study were expressed in AIM cells using an auto-induction system as described by Studier (2014). Briefly, the recombinant cultures were grown at 37° C. for 3 hours and then 20° C. for one or two days. Cells were harvested by centrifugation and frozen at −80° C. The pellet was resuspended in lysis buffer (Bper and Yper [Pierce] with ratio 3 to 1, 25 mM Tris-HCl, 300 mM NaCl, 10 mM imidazole, pH 8.0). 150 mM ferric ammonium citrate (1000X) was added to the lysate to a final concentration of 150 µM and incubated on ice for 20 minutes. The lysate was centrifuged to clarify the supernatant. Clear supernatant was loaded onto a 5 mL Ni column connected to AKTA Express (GE Healthcare). […] Protein concentrations were determined spectrophotometrically based on their calculated molar absorption extinction coefficients at 280 nm.
# TDO activity was measured by the second hydroxylation of mesotrione. For routine activity measurements of TDO and determining the kinetic properties of the second hydroxylation, the continuous change in A330, which is specific to the second hydroxylation and subsequent non-enzymatic water removal (i.e. the conversion of hydroxy-mesotrione to oxy-mesotrione), was monitored. […] The reaction proceeded until the maximum A330 was obtained (usually 20-120 minutes depending upon the concentration of mesotrione) and the linear portion of the curve was determined by visual inspection. […]
# For the activity calculation, aliquots of the reaction were removed at various time points during the reaction and heated at 95° C. to halt the reaction. The reaction mixtures were analyzed by HPLC and mass spectrophotometry. By product conversation followed by peak integration on HPLC, a linear plot was obtained and the extinction co-efficient delta between the substrate (mesotrione) and the second product (oxy-mesotrione) was obtained according to the equation ΔA330=(εp-εs)*bΔp where ΔA330 is the change of absorbance at 330 nm and b is the light path.
# [6] = specific activity of second hydroxylation
molecule,measurement,setting,value
B1,"Crop Injury (%), 210 g/ha (2X) Mesotrione",[1]; Under 80° F.,0%
same,"Crop Injury (%), 840 g/ha (8X) Mesotrione",[1]; Under 80° F.,0%
same,"Crop Injury (%), 210 g/ha (2X) Mesotrione",[1]; Under 100° F.,0%
same,"Crop Injury (%), 840 g/ha (8X) Mesotrione",[1]; Under 100° F.,0%
same,injury rates relative to Os.TDO controls,[1]; cotton at the higher temperature,trending even lower than the Os.TDO controls
same,injury ratings after mesotrione application relative to Os.TDO control,[2],possibly trending lower injury relative to the Os.TDO control
same,tolerance to mesotrione spray treatment,[3],good tolerance
B2,% Injury,[4],15%
same,activity lower than rice TDO,[5]; [6],about 30%
B3,% Injury,[4],35%
same,specific activity of the second hydroxylation,[5]; purified His6-tagged protein from E. coli,not significantly different from the blank
B4,activity compared to the rice TDO protein,[5]; [6],about 17%
